For experiment [1], the target named is whole-length cardiac myosin isolated from mice hearts (mouse) (UniProt Q91Z83). The experiment can be described thus: co-sedimentation; whole-length cardiac myosin (10 µM) incubated with increasing concentration (0-10 µM) of hC0-C2; Michaelis-Menten binding fit.
In experiment [2] the target is wild-type recombinant human cMyBP-C C0-C2 region (hC0-C2^WT) (human). The experiment can be described thus: solid-phase binding assay; 20 µM hC0-C2 incubated with increasing concentrations of hS2 (0-20 µM); binding of hS2 read by fluorescence intensity; Michaelis-Menten binding fit; n = 3.
In experiment [3] the target is recombinant human cMyBP-C C0-C2 region with D389V (hC0-C2^D389V) (human). The description is as above.
Experiment [4] deals with wild-type recombinant human cMyBP-C C0-C2 region (hC0-C2^WT) (human). Description: ITC; 20 µM hC0-C2 titrated against 350 µM hS2; n = 3.

Chain of UniProt Q91Z83 (Q91Z83 whole entry, chain 1 of 3): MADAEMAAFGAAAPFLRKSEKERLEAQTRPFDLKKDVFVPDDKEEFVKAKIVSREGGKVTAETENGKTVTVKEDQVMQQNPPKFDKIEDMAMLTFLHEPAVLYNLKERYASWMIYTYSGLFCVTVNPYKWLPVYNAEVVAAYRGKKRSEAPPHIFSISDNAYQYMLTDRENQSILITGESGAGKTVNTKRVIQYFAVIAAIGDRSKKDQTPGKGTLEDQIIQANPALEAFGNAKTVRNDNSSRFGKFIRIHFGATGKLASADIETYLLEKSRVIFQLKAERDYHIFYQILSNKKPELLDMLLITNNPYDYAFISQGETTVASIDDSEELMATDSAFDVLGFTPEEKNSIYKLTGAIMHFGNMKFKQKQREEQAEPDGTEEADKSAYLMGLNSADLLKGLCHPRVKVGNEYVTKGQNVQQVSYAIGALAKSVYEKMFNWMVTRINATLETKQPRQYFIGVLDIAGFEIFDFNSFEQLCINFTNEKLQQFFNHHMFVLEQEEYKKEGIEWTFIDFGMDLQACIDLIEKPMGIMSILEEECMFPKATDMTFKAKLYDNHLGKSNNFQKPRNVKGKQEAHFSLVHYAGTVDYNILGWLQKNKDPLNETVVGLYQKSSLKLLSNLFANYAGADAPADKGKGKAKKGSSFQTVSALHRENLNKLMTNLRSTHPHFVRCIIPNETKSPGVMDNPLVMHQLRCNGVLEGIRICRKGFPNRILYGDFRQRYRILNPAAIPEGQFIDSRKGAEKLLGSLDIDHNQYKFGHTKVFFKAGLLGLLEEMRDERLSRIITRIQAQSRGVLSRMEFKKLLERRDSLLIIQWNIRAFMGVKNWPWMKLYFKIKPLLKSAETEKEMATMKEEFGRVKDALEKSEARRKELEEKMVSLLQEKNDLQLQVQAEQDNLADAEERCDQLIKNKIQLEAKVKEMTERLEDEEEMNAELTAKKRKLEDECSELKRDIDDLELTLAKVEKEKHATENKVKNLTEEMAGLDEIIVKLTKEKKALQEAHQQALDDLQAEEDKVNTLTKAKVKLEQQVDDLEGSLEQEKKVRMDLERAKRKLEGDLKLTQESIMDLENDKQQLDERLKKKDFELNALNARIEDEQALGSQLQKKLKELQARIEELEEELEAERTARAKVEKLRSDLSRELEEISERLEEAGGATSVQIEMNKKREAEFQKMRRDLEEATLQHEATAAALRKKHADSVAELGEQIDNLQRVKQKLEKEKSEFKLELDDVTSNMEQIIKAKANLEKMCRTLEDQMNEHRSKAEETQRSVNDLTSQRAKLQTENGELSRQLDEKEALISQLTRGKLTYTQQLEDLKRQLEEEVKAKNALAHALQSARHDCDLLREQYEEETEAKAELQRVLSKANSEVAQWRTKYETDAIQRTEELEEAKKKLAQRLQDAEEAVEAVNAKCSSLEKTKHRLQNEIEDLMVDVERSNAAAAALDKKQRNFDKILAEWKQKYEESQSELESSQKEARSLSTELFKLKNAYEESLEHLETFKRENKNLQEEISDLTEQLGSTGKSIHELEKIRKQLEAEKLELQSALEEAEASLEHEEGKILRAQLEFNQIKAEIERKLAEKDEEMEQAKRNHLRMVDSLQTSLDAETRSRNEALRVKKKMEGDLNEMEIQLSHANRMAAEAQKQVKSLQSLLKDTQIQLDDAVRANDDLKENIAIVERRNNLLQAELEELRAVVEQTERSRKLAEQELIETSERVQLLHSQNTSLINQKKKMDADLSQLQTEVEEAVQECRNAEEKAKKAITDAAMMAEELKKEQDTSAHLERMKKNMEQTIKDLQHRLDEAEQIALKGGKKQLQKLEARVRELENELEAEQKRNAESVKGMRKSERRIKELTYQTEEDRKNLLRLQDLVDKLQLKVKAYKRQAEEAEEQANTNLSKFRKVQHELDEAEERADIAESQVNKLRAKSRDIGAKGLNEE
Chain of UniProt Q91Z83 (P09542 2-204, chain 2 of 3, further chain): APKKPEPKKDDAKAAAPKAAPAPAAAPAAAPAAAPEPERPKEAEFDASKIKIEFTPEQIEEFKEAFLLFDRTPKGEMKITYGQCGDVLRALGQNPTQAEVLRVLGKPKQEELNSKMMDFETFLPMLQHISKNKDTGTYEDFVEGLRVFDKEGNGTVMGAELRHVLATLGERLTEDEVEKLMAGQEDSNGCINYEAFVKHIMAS
Chain of UniProt Q91Z83 (P51667 2-166, chain 3 of 3, further chain): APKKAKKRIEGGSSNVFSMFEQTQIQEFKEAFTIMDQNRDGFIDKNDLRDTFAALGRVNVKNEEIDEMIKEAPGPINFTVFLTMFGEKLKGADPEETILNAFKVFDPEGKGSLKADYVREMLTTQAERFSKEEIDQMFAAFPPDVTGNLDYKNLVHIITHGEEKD

In general, Kd refers to the free concentration of one partner at which half of the binding sites on the other are occupied at equilibrium, for simple one-to-one binding. With “recombinant human cMyBP-C C0-C2 region with D389V (hC0-C2^D389V) (domain or fragment)”, the Kd in experiment [1] was 900 nM.

By stoichiometry N is commonly meant the number of molecules, sites or subunits per partner or assembly. For the substance “recombinant proximal (126 residues) human myosin S2 (hS2) (domain or fragment)”, the dissociation constant Kd worked out at 4950 nM in experiment [2] and 4730 nM in experiment [3]. Further, in experiment [4], the stoichiometry N is 0.96.

In experiment [1], “wild-type recombinant human cMyBP-C C0-C2 region (hC0-C2^WT) (domain or fragment)” came in with a Kd of 840 nM.

The values above are taken from publication PMC11592734.
